Laboratory results as given in article PMC4797280 (Nucleic Acids Research, 2016).
Positions count from the first letter of the chain named. Where two headings read alike, the source gives them in different places. Blank lines part the entries; values can stand above or below the molecule they belong to.

What was measured:
Experiment in all cases: two-hybrid
[1] = biological target: S. cerevisiae Mre11 (LexA-Mre11) (S. cerevisiae) (UniProt P32829)
[2] = biological target: S. cerevisiae Mre11 (LexA-Mre11) (S. cerevisiae) (UniProt P32829); remark: listed apart in the source
[3] = biological target: T1, Mre11^T188I (LexA-Mre11^T188I) (S. cerevisiae, UniProt P32829 1-692, T188I)
T1 sequence (looked up): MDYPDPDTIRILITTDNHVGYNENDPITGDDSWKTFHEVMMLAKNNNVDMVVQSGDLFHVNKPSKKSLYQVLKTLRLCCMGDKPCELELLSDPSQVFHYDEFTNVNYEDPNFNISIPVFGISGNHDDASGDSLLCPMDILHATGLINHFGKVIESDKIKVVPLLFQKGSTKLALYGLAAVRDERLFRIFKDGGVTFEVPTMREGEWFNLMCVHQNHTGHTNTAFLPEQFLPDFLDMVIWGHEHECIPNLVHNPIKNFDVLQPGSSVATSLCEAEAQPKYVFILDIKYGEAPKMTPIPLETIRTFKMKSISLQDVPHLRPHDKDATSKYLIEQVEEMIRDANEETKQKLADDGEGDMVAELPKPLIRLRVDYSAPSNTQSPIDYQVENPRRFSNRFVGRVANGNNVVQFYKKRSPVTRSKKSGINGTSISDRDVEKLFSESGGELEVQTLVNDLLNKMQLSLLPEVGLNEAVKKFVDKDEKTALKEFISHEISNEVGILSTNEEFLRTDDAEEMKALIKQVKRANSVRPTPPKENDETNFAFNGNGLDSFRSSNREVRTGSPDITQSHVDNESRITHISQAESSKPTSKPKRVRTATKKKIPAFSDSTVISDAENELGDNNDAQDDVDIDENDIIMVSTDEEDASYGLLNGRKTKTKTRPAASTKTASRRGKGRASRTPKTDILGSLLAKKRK

[4] = biological target: T2, Mre11^D16A (LexA-Mre11^D16A) (S. cerevisiae, UniProt P32829 1-692, D16A)
T2 sequence (looked up): T1 sequence (looked up) with D16A, I188T

[5] = biological target: T3, S. cerevisiae Mre11 (LexA-Mre11) (S. cerevisiae, UniProt P32829 1-692)
T3 sequence (looked up): T1 sequence (looked up) with I188T

[6] = biological target: T4, Mre11^I158R (LexA-Mre11^I158R) (S. cerevisiae, UniProt P32829 1-692, I158R)
T4 sequence (looked up): T1 sequence (looked up) with I158R, I188T

[7] = biological target: T5, Mre11^P84S (LexA-Mre11^P84S) (S. cerevisiae, UniProt P32829 1-692, P84S)
T5 sequence (looked up): T1 sequence (looked up) with P84S, I188T

[8] = biological target: T3, S. cerevisiae Mre11 (LexA-Mre11); remark: listed apart in the source
[9] = biological target: T4, Mre11^I158R (LexA-Mre11^I158R); remark: listed apart in the source

two-hybrid β-galactosidase activity (β-galactosidase units) [1]: 71.9 | two-hybrid β-galactosidase activity (β-galactosidase units) [2]: 38.8
Molecule: Smt3 (Gal4AD-Smt3) (from UniProt Q12306 1-101) (natural protein)

two-hybrid β-galactosidase activity (β-galactosidase units) [1]: 21.8 | two-hybrid β-galactosidase activity (β-galactosidase units) [2]: 5.4
Molecule: Smt3-allR (Gal4AD-Smt3^allR) (from UniProt Q12306 1-101) (natural protein)

two-hybrid β-galactosidase activity [3]: 153 ± 4.7 β-galactosidase units | two-hybrid β-galactosidase activity [4]: 76.2 ± 7 β-galactosidase units | two-hybrid β-galactosidase activity [5]: 188 ± 8.5 β-galactosidase units | two-hybrid β-galactosidase activity [6]: 37.9 ± 4 β-galactosidase units | two-hybrid β-galactosidase activity [7]: 162 ± 6.4 β-galactosidase units | two-hybrid β-galactosidase activity [8]: 125 ± 9.5 β-galactosidase units | two-hybrid β-galactosidase activity [9]: 35.1 ± 1 β-galactosidase units
B1: Xrs2 (Gal4AD-Xrs2) (natural protein, S. cerevisiae, UniProt P33301 1-854, looked up)
chain: MWVVRYQNTLEDGSISFISCCLQAFKTYSIGRSSKNPLIIKNDKSISRQHITFKWEINNSSDLKHSSLCLVNKGKLTSLNKKFMKVGETFTINASDVLKSTIIELGTTPIRIEFEWINEVWNIPPHLTQFRTMLSEYGISTEISINDIPANLMISDYPKSEDNSIRELYALVSTIPMKKSRFLMELCNTLLPTSKTNLKFDEMWNDMISNPEYNVFDFDPNILLSKFMRLNNIRVLTTIKSEPRLSSLLRTFNINLFAFDNIDSLYKYVDSLEASTEYLILTTTDKKENGKILCTIKTMLTSIIDGTLSAVINMKGASSRTLDNGKFDQISEGMSTILKTSRAPEVEASPVVSKKRKLNRRRVLPLDSLDFFAGGLSTKTLSENRSLTDAKRLNCGAESKTVISSPNIAEADEKHAPFLQNALKPTEDIGKKSGHSSPGAIIVSSPNLGTVNTSEDSLDKSLQSHKLPQPSLPEVAGIGSQTISSNSADYETAAVNSMDDAEVTKNFRVNHHQNIEQPSKNIRKLSNYSREISSPLQENCKSPVKELSIKEKSGTPHAFVEAIQETKNREVKRVKSTIVELKDEELSEEAINQLKNLAIVEPSNNLLRKSFDSEGNKTSRTTEKWENSLMEPEWHKRKNFKTFVKVRPKSKAHKEEGKNNTQSSDFIRNAAFLITRNYVPLKKYSKKDTTTKWGTEENEDMFALTEMERFGSNTFMSDNINSNTIQKRSQALNRFTNEDSSNEGEEDSFSFSRCSGTAASVQPLKNKIFITDEDDLGDIDDKSDRLNHRENNRNLFVVKEMNLRPNLSEECSKQSRHSRSATSRSRGSFGASNNGDGDDDDDDGPKFTFKRRKG

two-hybrid β-galactosidase activity [3]: 60.1 ± 3.6 β-galactosidase units | two-hybrid β-galactosidase activity [7]: 51.7 ± 3.1 β-galactosidase units
B2: Smt3 (Gal4AD-Smt3) (natural protein, S. cerevisiae, UniProt Q12306 1-101, looked up)
chain: MSDSEVNQEAKPEVKPEVKPETHINLKVSDGSSEIFFKIKKTTPLRRLMEAFAKRQGKEMDSLRFLYDGIRIQADQTPEDLDMEDNDIIEAHREQIGGATY
